# Results from patent US20250361322A1 (ICONIC THERAPEUTICS, published 2025).
# Like-named read-outs stand apart in the source and are kept apart here.
# T1: cynomolgus monkey TF ECD-His6 (cynomolgus monkey (Macaca fascicularis))
# T1 construct: Expi293-derived; also called TF-His; cTF
# T1 chain: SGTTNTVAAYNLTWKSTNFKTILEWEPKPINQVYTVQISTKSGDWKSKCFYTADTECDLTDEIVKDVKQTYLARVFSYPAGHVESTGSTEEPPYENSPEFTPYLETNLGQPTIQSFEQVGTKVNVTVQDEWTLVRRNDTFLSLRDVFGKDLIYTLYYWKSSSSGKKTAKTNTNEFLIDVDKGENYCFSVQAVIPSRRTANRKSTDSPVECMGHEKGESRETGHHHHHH
# B1: 29E (antibody, human IgG1, V domains shown)
# VH: QVQLVESGGGVVQPGRSLRLSCAASGFTFRSYGMHWVRQAPGKGLEWVAVITYDGINKYYADSVEGRFTISRDNSKNTLYLQMNSLRAEDTAVYYCARDGVYYGVYDYWGQGTLVTVSS
# VL: not shown
# notes: Human IgG1; also called antibody designated 29E
# B2: 43D7 (antibody, human IgG1, V domains shown)
# VH: QVQLQQWGAGLLKPSETLSLTCAVYGGSLSGYYWSWIRQPPGKGLEWIGEIGASGSTRYNPSLKSRVTISVDTSKNQFSLKLSSVTAADTAVYYCARDTPYYYEGGYYYYMDVWGKGTTVTVSS
# VL: EIVLTQSPGTLSLSPGERATLSCRASDSVDSSYLAWYQQKPGQAPRLLIYGAFSRANGIPDRFSGSGSGTDFTLTISRLEPEDFAVYYCQQAGVVPYTFGGGTKVEIK
# notes: Human IgG1; also called antibody designated 43D7
# Legend:
# [1] = molecular target: T2, human TF ECD-His6 (human, UniProt P13726 33-251); experiment: BLI (ForteBio Octet)
# T2 construct: Expi293-derived; Biacore used TF-His; also called TF-His; hTF
# [2] = molecular target: T1, cynomolgus monkey TF ECD-His6; experiment: BLI (ForteBio Octet)
# [3] = molecular target: Relipidated TF (UniProt P13726 33-295, limits assumed); experiment: cell-based or functional assay
# [4] = molecular target: T3, rTF (rat TF) construct on HEK293 cells (rat, UniProt P42533 29-252); experiment: live cell staining, HEK293 cells
# T3 construct: not shown: transmembrane/cytoplasmic anchor of the cell-surface construct
# T3 sequence (P42533 29-252 limits assumed): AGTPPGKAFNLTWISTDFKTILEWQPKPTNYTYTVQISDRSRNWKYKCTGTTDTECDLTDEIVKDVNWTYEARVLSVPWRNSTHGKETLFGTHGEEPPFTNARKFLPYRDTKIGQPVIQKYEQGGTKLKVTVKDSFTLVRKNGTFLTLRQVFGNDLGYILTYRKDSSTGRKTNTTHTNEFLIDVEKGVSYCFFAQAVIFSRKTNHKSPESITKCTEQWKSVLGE
# [5] = molecular target: T2, human TF ECD-His6; experiment: SPR (Biacore), TF-His over coupled antibody
# [6] = molecular target: T1, cynomolgus monkey TF ECD-His6; experiment: SPR (Biacore), TF-His over coupled antibody
# [7] = molecular target: T4, full-length mouse TF with a C-terminal FLAG tag on Flp-In-CHO cells (mouse, UniProt P20352 29-294); experiment: flow cytometry, antibody titration on CHO cells expressing mouse TF
# T4 construct: also called CHO-mTF; mouse TF-positive CHO cells
# [8] = molecular target: T4, full-length mouse TF with a C-terminal …; experiment: flow cytometry on CHO cells expressing mouse TF, MFI at 250 nM antibody
# [9] = molecular target: T5, human Tissue Factor on human TF-positive cells (human, UniProt P13726 33-295); experiment: flow cytometry, antibody titration on A431 cells (human TF), 4-parameter fit of MFI
# T5 construct: also called hTF; CD142
# [10] = molecular target: T5, human Tissue Factor on human …; experiment: flow cytometry, antibody titration on MDA-MB-231 cells (human TF), 4-parameter fit of MFI
# [11] = molecular target: T5, human Tissue Factor on human …; experiment: flow cytometry, antibody titration on HCT-116 cells (endogenous human TF), 4-parameter fit of MFI
# [12] = molecular target: T5, human Tissue Factor on human …; experiment: flow cytometry, titration of unconjugated antibody on HCT-116 cells (human TF), 4-parameter fit of MFI
# [13] = molecular target: T5, human Tissue Factor on human …; experiment: competition flow cytometry on MDA-MB-231 cells: antibody titration first, then 20 nM FVII-Fc-Alexa488 as the blocked ligand
# [14] = molecular target: T5, human Tissue Factor on human …; experiment: competition flow cytometry on MDA-MB-231 cells: unlabeled antibody titration first, then 20 nM 39A-Alexa488 as the competitor
# [15] = molecular target: T6, mouse TF ECD-His6 (mouse, UniProt P20352 29-251); experiment: BLI (ForteBio Octet)
# T6 construct: Expi293-derived; also called TF-His; mTF
# [16] = molecular target: T6, mouse TF ECD-His6; experiment: SPR (Biacore), TF-His over coupled antibody
# Procedure: Kinetic measurements for the anti-TF antibodies were conducted on an Octet QK384 (Pall ForteBio, Fremont, CA, USA) or a Biacore (GE Healthcare Bio-Sciences).
# For the Biacore-based measurements, the antibody was covalently coupled to a CM5 or C1 chip using an amine-coupling kit (GE Healthcare Bio-Sciences). Association between the anti-TF antibodies and a five-point three-fold titration of TF-His starting at 25 to 500 nM was measured for 300 sec. Subsequently, dissociation between the anti-TF antibody and TF-His was measured for up to 1800 sec. Kinetic data was analyzed and fitted globally using a 1:1 binding model.
# [17] = molecular target: T4, full-length mouse TF with a C-terminal …; experiment: flow cytometry on CHO cells expressing mouse TF, MFI at 250 nM antibody; remark: listed apart in the source
# Procedure: After 2 washes, dead cells were labeled with TO-PRO-3 Iodide (ThermoFisher Scientific) and samples were analyzed on a CytoFLEX flow cytometer (Beckman Coulter, Brea, CA, USA) or Novocyte flow cytometer (ACEA Biosciences, San Diego, CA, USA). The median fluorescence intensities (MFIs) at each dilution were plotted and cell EC₅₀'s were derived using a 4-parameter binding model in Prism (GraphPad, La Jolla, CA, USA).
# [18] = molecular target: T4, full-length mouse TF with a C-terminal …; experiment: flow cytometry, antibody titration on CHO cells expressing mouse TF, 4-parameter fit of MFI
binder,measurement,setting,value
B1,Kd,[1],2.32 nM
same,Kd,[2],15 nM
same,% ETP at 10 nM Ab (TGA with 10 min antibody pre-incubation),[3],73%
same,% ETP at 50 nM Ab (TGA with 10 min antibody pre-incubation),[3],68%
same,% ETP at 100 nM Ab (TGA with 10 min antibody pre-incubation),[3],64%
same,% Peak IIa at 10 nM Ab (TGA with 10 min antibody pre-incubation),[3],30%
same,% Peak IIa at 50 nM Ab (TGA with 10 min antibody pre-incubation),[3],27%
same,% Peak IIa at 100 nM Ab (TGA with 10 min antibody pre-incubation),[3],26%
same,ETP at 10 nM Ab (TGA with 10 min antibody pre-incubation),[3],1250 nM·min
same,ETP at 50 nM Ab (TGA with 10 min antibody pre-incubation),[3],1170 nM·min
same,ETP at 100 nM Ab (TGA with 10 min antibody pre-incubation),[3],1100 nM·min
same,Lag Time at 10 nM Ab (TGA with 10 min antibody pre-incubation),[3],10.4 min
same,Lag Time at 50 nM Ab (TGA with 10 min antibody pre-incubation),[3],14.2 min
same,Lag Time at 100 nM Ab (TGA with 10 min antibody pre-incubation),[3],15.1 min
same,Peak IIa at 10 nM Ab (TGA with 10 min antibody pre-incubation),[3],78 nM
same,Peak IIa at 50 nM Ab (TGA with 10 min antibody pre-incubation),[3],70 nM
same,Peak IIa at 100 nM Ab (TGA with 10 min antibody pre-incubation),[3],68 nM
same,ttPeak at 10 nM Ab (TGA with 10 min antibody pre-incubation),[3],20.2 min
same,ttPeak at 50 nM Ab (TGA with 10 min antibody pre-incubation),[3],24.3 min
same,ttPeak at 100 nM Ab (TGA with 10 min antibody pre-incubation),[3],25.3 min
same,binding result,[4],no binding
same,Kd,[5],0.47 nM
same,Kd,[6],5.06 nM
same,binding result,[7],no binding (tested: 250 nM)
same,MFI at 250 nM,[8],5100
same,EC50,[9],0.68 nM
same,EC50,[10],0.26 nM
same,EC50,[11],0.152 nM
same,EC50,[12],0.23 nM
same,IC50 (read off the curve),[13],~2 nM
same,IC50,[14],1.15 nM
B2,Kd,[15],41.4 nM
same,Kd,[16],21 nM
same,MFI at 250 nM,[17],1.8e+07
same,EC50,[18],3.6 nM
